This is an account of results in publication PMC6534611.

The target in this test is Ptch1 variant △893-899/T903A/K904A/Q905A/N1000Q (human) (UniProt Q13635). Kind of test: not stated; Ptch1 variant alone or in complex with ShhNp; Supplementary Fig. 8c.

The term stoichiometry N denotes the number of molecules, sites or subunits per partner or assembly. In turn, “Ptch1 variant △893-899/T903A/K904A/Q905A/N1000Q (from UniProt Q13635 1-1305) (receptor)” yielded a stoichiometry N of 4.
